Reference: patent US20190002587A1 (AROCELL, published 2019)
Where no end group is shown, it is not given here.

Assays:
XPA 210 peptide = target: T1, XPA 210 peptide (human, immobilized on streptavidin coated plate (biotinylated) in the Pepscan); assay: Pepscan ELISA, peptide on streptavidin plate
T1 construct: also called 31-mer; 31-mer peptide
T1 peptide: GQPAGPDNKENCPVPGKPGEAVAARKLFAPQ
Experimental: (§1) In order to determine the amino acid region to which the selected monoclonal antibodies bind a Pepscan analysis with biotinylated 10 amino acid target peptides was carried out. The procedure is based on synthesis of a set of 14 ten-mer amino acid peptides representing the region from 193 to 226 of the TK1 sequence as shown in connection with Example 1. Each peptide has an eight amino acids overlap and two amino acids gaps, leading to a set of 14 different peptides, see Table 2. The entire full-length peptide is also included and all these peptides were immobilized on a streptavidine coated microtiter plate. After a 1 hour adsorption step the plates were washed with PBS, 1% BSA and 0.1% Tween 20. The different antibodies were then added at approximately 5 μg/ml and the plates were incubated for 1 hour, followed by washing three times. Then a HRP conjugate was added and incubated for 1 hour. The plates were then washed six times with the same buffer. Finally the absorbance was determined with 100 μl 3,3′,5,5′-tetramethylbenzidine (TMB) substrate and the results from one test with a series of antibodies are shown in Table 2.

ASGQPAGPDN [1] = target: T2, ASGQPAGPDN (human, also: biotinylated, position not given here); assay: Pepscan ELISA, peptide on streptavidin plate
T2 peptide: ASGQPAGPDN
Experimental: as §1

GQPAGPDNKE [2] = target: T3, GQPAGPDNKE (human, also: biotinylated); assay: Pepscan ELISA, peptide on streptavidin plate
T3 peptide: GQPAGPDNKE
Experimental: as §1

PAGPDNKENC [3] = target: T4, PAGPDNKENC (human, also: biotinylated); assay: Pepscan ELISA, peptide on streptavidin plate
T4 peptide: PAGPDNKENC
Experimental: as §1

GPDNKENCPV [4] = target: T5, GPDNKENCPV (human, also: biotinylated); assay: Pepscan ELISA, peptide on streptavidin plate
T5 peptide: GPDNKENCPV
Experimental: as §1

DNKENCPVPG [5] = target: T6, DNKENCPVPG (human, also: biotinylated); assay: Pepscan ELISA, peptide on streptavidin plate
T6 peptide: DNKENCPVPG
Experimental: as §1

KENCPVPGKP [6] = target: T7, KENCPVPGKP (human, also: biotinylated); assay: Pepscan ELISA, peptide on streptavidin plate
T7 peptide: KENCPVPGKP
Experimental: as §1

NCPVPGKPGE [7] = target: T8, NCPVPGKPGE (human, also: biotinylated); assay: Pepscan ELISA, peptide on streptavidin plate
T8 construct: also called peptide 7
T8 peptide: NCPVPGKPGE
Experimental: as §1

PVPGKPGEAV [8] = target: T9, PVPGKPGEAV (human, also: biotinylated); assay: Pepscan ELISA, peptide on streptavidin plate
T9 construct: also called peptide 8
T9 peptide: PVPGKPGEAV
Experimental: as §1

PGKPGEAVAA [9] = target: T10, PGKPGEAVAA (human, also: biotinylated); assay: Pepscan ELISA, peptide on streptavidin plate
T10 peptide: PGKPGEAVAA
Experimental: as §1

KPGEAVAARK [10] = target: T11, KPGEAVAARK (human, also: biotinylated); assay: Pepscan ELISA, peptide on streptavidin plate
T11 peptide: KPGEAVAARK
Experimental: as §1

GEAVAARKLF [11] = target: T12, GEAVAARKLF (human, also: biotinylated); assay: Pepscan ELISA, peptide on streptavidin plate
T12 construct: also called 10-mer; 10-mer peptide
T12 peptide: GEAVAARKLF
Experimental: as §1

AVAARKLFAP [12] = target: T13, AVAARKLFAP (human, also: biotinylated); assay: Pepscan ELISA, peptide on streptavidin plate
T13 peptide: AVAARKLFAP
Experimental: as §1

AARKLFAPQQ [13] = target: T14, AARKLFAPQQ (human, also: biotinylated, position not given here); assay: Pepscan ELISA, peptide on streptavidin plate
T14 peptide: AARKLFAPQQ
Experimental: as §1

ARKLFAPQQI [14] = target: T15, ARKLFAPQQI (human, also: biotinylated, position not given here); assay: Pepscan ELISA, peptide on streptavidin plate
T15 peptide: ARKLFAPQQI
Experimental: as §1

human recombinant TK1 [15] = target: T16, human recombinant TK1 (human, UniProt P04183 1-234, limits assumed); assay: Attana 200 quartz crystal microbalance biosensor, antibody captured by anti-mouse IgG, rTK1 injected, 1:1 model
T16 construct: also called human rTK1; rTK1
T16 sequence (looked up): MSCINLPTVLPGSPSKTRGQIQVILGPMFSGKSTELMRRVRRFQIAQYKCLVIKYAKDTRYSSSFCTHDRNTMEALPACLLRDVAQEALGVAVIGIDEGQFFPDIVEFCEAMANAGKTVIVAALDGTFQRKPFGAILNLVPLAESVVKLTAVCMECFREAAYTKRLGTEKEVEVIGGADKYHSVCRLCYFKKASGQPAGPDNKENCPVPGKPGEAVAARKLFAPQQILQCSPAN
Experimental: (§2) In the experiment shown in FIGS. 8A and 8B an LNB Carboxyl sensor chip was used, which was pre-reacted with the Mouse IgG capture kit (Biacore, GE Healthcare) with the amine coupling procedure. The ligands were XPA 210-Ar1 and XPA 210-Ar2 and they were captured to the surface with anti-mouse antibodies by two injections of 50 μg/ml antibody solutions in a 10 mM acetate buffer pH 4.5. An identically treated chip without the capture antibody was used a negative control. Pure recombinant TK1, diluted to 20 μg/ml in 10 mM HEPES, 150 mM NaCl, 0.005% Tween 20, pH 7.4, was injected over the surface at 25 μl/min. The association time was 84 s and the dissociation was measured for another 300 s. Buffer without recombinant TK1 was injected as a blank and subtracted from the sample injection signals.
(§3) An 1:1 binding model was used for calculation of the kinetic constants from the fitted curves of the double reference data as shown in FIGS. 8A and 8B.

human recombinant TK1 [16] = target: T16, human recombinant TK1; assay: Attana quartz crystal microbalance, antibody captured by anti-mouse IgG on the chip, recombinant TK1 injected at 20 to 1.25 ug/ml, 1:1 binding model
Experimental: as §2, §3

ASGQPAGPDN [17] = target: T2, ASGQPAGPDN; assay: Pepscan ELISA
Experimental: as §1

GQPAGPDNKE [18] = target: T3, GQPAGPDNKE; assay: Pepscan ELISA
Experimental: as §1

PAGPDNKENC [19] = target: T4, PAGPDNKENC; assay: Pepscan ELISA
Experimental: as §1

GPDNKENCPV [20] = target: T5, GPDNKENCPV; assay: Pepscan ELISA
Experimental: as §1

DNKENCPVPG [21] = target: T6, DNKENCPVPG; assay: Pepscan ELISA
Experimental: as §1

KENCPVPGKP [22] = target: T7, KENCPVPGKP; assay: Pepscan ELISA
Experimental: as §1

NCPVPGKPGE [23] = target: T8, NCPVPGKPGE; assay: Pepscan ELISA
Experimental: as §1

PVPGKPGEAV [24] = target: T9, PVPGKPGEAV; assay: Pepscan ELISA
Experimental: as §1

PGKPGEAVAA [25] = target: T10, PGKPGEAVAA; assay: Pepscan ELISA
Experimental: as §1

KPGEAVAARK [26] = target: T11, KPGEAVAARK; assay: Pepscan ELISA
Experimental: as §1

GEAVAARKLF [27] = target: T12, GEAVAARKLF; assay: Pepscan ELISA
Experimental: as §1

AVAARKLFAP [28] = target: T13, AVAARKLFAP; assay: Pepscan ELISA
Experimental: as §1

AARKLFAPQQ [29] = target: T14, AARKLFAPQQ; assay: Pepscan ELISA
Experimental: as §1

ARKLFAPQQI [30] = target: T15, ARKLFAPQQI; assay: Pepscan ELISA
Experimental: as §1

B1: XPA 210-Ar3 (antibody, V domains shown)
VH: DVQLQESGPDLVKPSQSLSLTCTVTGYSITSGYSWHWIRQFPGNKLEWLGYIHYSGSTTYNPSLKGRISITRDTSKNQFFLQLNSVTTEDTATYYCARWGTGHWYFDVWAAGTTVTVSS
VL: QAVVTQESALTTSPGKTVTLTCRSSTGAVTTTNYANWVQEKPDHLFTGLIGGTNNRVPGVPARFSGSLIGDKAALTITGAQTEDEAIYFCALWYSNHWVFGGGTKLTVL
notes: Mouse monoclonal from hybridoma; also called Sup-165
- absorbance at 415 nm (XPA 210 peptide): 0.136 absorbance
- absorbance at 415 nm (ASGQPAGPDN [1]): 0.057 absorbance
- absorbance at 415 nm (GQPAGPDNKE [2]): 0.057 absorbance
- absorbance at 415 nm (PAGPDNKENC [3]): 0.055 absorbance
- absorbance at 415 nm (GPDNKENCPV [4]): 0.06 absorbance
- absorbance at 415 nm (DNKENCPVPG [5]): 0.059 absorbance
- absorbance at 415 nm (KENCPVPGKP [6]): 0.058 absorbance
- absorbance at 415 nm (NCPVPGKPGE [7]): 1.99 absorbance
- absorbance at 415 nm (PVPGKPGEAV [8]): 1.84 absorbance
- absorbance at 415 nm (PGKPGEAVAA [9]): 0.059 absorbance
- absorbance at 415 nm (KPGEAVAARK [10]): 0.059 absorbance
- absorbance at 415 nm (GEAVAARKLF [11]): 0.057 absorbance
- absorbance at 415 nm (AVAARKLFAP [12]): 0.062 absorbance
- absorbance at 415 nm (AARKLFAPQQ [13]): 0.06 absorbance
- absorbance at 415 nm (ARKLFAPQQI [14]): 0.062 absorbance

B2: XPA 210-Ar1 (antibody, V domains shown)
VH: QVQLQQSGAELVRPGASMKLSCKALGYTLTDYEMHWVKQTPAHGLEWIGAIHPGYGGTAYNQKFKGKATLTADKSSSTAYMELSSLTSEDSAVYYCTTFITKFDYWGQGTTLTVSS
VL: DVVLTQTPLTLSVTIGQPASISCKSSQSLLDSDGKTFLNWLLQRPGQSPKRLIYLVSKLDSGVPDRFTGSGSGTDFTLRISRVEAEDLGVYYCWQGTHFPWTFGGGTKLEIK
notes: Mouse monoclonal from hybridoma; also called monoclonal antibody XPA 210-Ar1
- absorbance at 415 nm (XPA 210 peptide): 3.84 absorbance
- absorbance at 415 nm (ASGQPAGPDN [1]): 0.113 absorbance
- absorbance at 415 nm (GQPAGPDNKE [2]): 0.108 absorbance
- absorbance at 415 nm (PAGPDNKENC [3]): 0.12 absorbance
- absorbance at 415 nm (GPDNKENCPV [4]): 0.112 absorbance
- absorbance at 415 nm (DNKENCPVPG [5]): 0.108 absorbance
- absorbance at 415 nm (KENCPVPGKP [6]): 0.109 absorbance
- absorbance at 415 nm (NCPVPGKPGE [7]): 0.114 absorbance
- absorbance at 415 nm (PVPGKPGEAV [8]): 0.115 absorbance
- absorbance at 415 nm (PGKPGEAVAA [9]): 0.112 absorbance
- absorbance at 415 nm (KPGEAVAARK [10]): 0.116 absorbance
- absorbance at 415 nm (GEAVAARKLF [11]): 3.51 absorbance
- absorbance at 415 nm (AVAARKLFAP [12]): 0.125 absorbance
- absorbance at 415 nm (AARKLFAPQQ [13]): 0.137 absorbance
- absorbance at 415 nm (ARKLFAPQQI [14]): 0.13 absorbance
- Kd (human recombinant TK1 [15]): 0.65 nM
- koff (human recombinant TK1 [16]): 1.61e-05 s⁻¹
- kon (human recombinant TK1 [16]): 24800 M⁻¹ s⁻¹

B3: XPA 210-Ar2 (antibody, V domains shown)
VH: QVQLQQSGAELVRPGASVKLSCKALGYTFTDYEMHWVRQTPVHGLEWIGAILPGSGGTAYNQKFKGKATLTADKSSSTAYMELSSLTSEDSAVYYCTTLITTFDYWGQGTTLTVSS
VL: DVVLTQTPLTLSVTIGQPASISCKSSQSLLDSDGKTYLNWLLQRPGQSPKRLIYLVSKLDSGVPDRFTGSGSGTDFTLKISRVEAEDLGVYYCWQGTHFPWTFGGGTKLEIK
notes: Mouse monoclonal from hybridoma; also called Sup-162; XPA-Ar2
- binding result (ASGQPAGPDN [17]): no binding (tested: approximately 5 µg/ml)
- binding result (GQPAGPDNKE [18]): no binding (tested: approximately 5 µg/ml)
- binding result (PAGPDNKENC [19]): no binding (tested: approximately 5 µg/ml)
- binding result (GPDNKENCPV [20]): no binding (tested: approximately 5 µg/ml)
- binding result (DNKENCPVPG [21]): no binding (tested: approximately 5 µg/ml)
- binding result (KENCPVPGKP [22]): no binding (tested: approximately 5 µg/ml)
- binding result (NCPVPGKPGE [23]): no binding (tested: approximately 5 µg/ml)
- binding result (PVPGKPGEAV [24]): no binding (tested: approximately 5 µg/ml)
- binding result (PGKPGEAVAA [25]): no binding (tested: approximately 5 µg/ml)
- binding result (KPGEAVAARK [26]): no binding (tested: approximately 5 µg/ml)
- binding result (GEAVAARKLF [27]): no binding (tested: approximately 5 µg/ml)
- binding result (AVAARKLFAP [28]): no binding (tested: approximately 5 µg/ml)
- binding result (AARKLFAPQQ [29]): no binding (tested: approximately 5 µg/ml)
- binding result (ARKLFAPQQI [30]): no binding (tested: approximately 5 µg/ml)
- absorbance at 415 nm (XPA 210 peptide): 3.79 absorbance
- absorbance at 415 nm (ASGQPAGPDN [1]): 0.067 absorbance
- absorbance at 415 nm (GQPAGPDNKE [2]): 0.064 absorbance
- absorbance at 415 nm (PAGPDNKENC [3]): 0.063 absorbance
- absorbance at 415 nm (GPDNKENCPV [4]): 0.063 absorbance
- absorbance at 415 nm (DNKENCPVPG [5]): 0.063 absorbance
- absorbance at 415 nm (KENCPVPGKP [6]): 0.063 absorbance
- absorbance at 415 nm (NCPVPGKPGE [7]): 0.064 absorbance
- absorbance at 415 nm (PVPGKPGEAV [8]): 0.067 absorbance
- absorbance at 415 nm (PGKPGEAVAA [9]): 0.067 absorbance
- absorbance at 415 nm (KPGEAVAARK [10]): 0.072 absorbance
- absorbance at 415 nm (GEAVAARKLF [11]): 0.072 absorbance
- absorbance at 415 nm (AVAARKLFAP [12]): 0.077 absorbance
- absorbance at 415 nm (AARKLFAPQQ [13]): 0.066 absorbance
- absorbance at 415 nm (ARKLFAPQQI [14]): 0.063 absorbance
